# Measured values reported in patent publication US20240324599A1, “PESTICIDAL ENZYMES FOR USE ON NEMATODES, INSECTS, AND MOLLUSKS” (priority 2023, published 2024).
# Where two headings read alike, the source gives them in different places.
# B1: Bacillus subtilis Esterase (EstB without signal sequence) (protein, listed as Bacillus subtilis)
# chain: ESVHNPVVLVHGISGASYNFFAIKNYLISQGWQSNKLYAIDFYDKTGNNLNNGPQLASYVDRVLKETGAKKVDIVAHSMGGANTLYYIKYLGGGNKIQNVVTLGGANGLVSSTALPGTDPNQKILYTSIYSLNDQIVINSLSRLQGARNIQLYGIGHIGLLSNSQVNGYIKEGLNGGGLNTN
# modifications: Esterase (EstB H191 without signal sequence)
# B2: Streptomyces coelicolor Chitinase F (Chi19F) (protein)
# chain: ASCSSYHAWSADANYNTGDIVRYTDGKAYIAEHANPGYDPLISTWYWDPYACDGGSQTPVGNFVVSEAQFNQMFPGRNSFYTYSGLTAALSAYPGFANTGSDTTKKQEAAAFLANVSHETGGLVYIVEQNTANYPHYCDWNQPYGCPAGQAAYYGRGPIQLSWNFNYKAAGDALGIDLLGNPWLVQNDAAVAWKTGLWYWNTQSGPGTMTPHNAMVNGAGFGQTIRSINGSLECDGKNPAQVQSRVTKYQQFAQILGVSPGGNLYC
# modifications: Chitinase F (Chi19F); Streptomyces coelicolor
# Tests used:
# [1] = tested on: soybean cyst nematode (SCN, Heterodera glycines); test: Controlled environment soybean seed treatment trial: SCN cysts on roots; type: in vivo; conditions: for % Comparison to Control: base control = 100%
# [2] = tested on: SCN juveniles (SCN HG type 1.2.5.7, race 2); type: in vivo; conditions: for Difference in Percent Death of Nematodes for 0 to 24 Hours: 40 μL of each treatment per well
# Text: To identify an additional esterase enzyme with efficacy in reducing SCN viability, we performed an in-vitro plate assay with a Pseudomonas sp. esterase (SEQ ID NO: 248) free enzyme direct treatment. The Pseudomonas sp. esterase (SEQ ID NO: 248) was produced by fermentation in Bacillus subtilis. The enzyme was cloned into a Bacillus expression plasmid p1797 with isopropyl β-d-1-thiogalactopyranoside (IPTG) inducible expression. The plasmid was transformed into B. subtilis, and the gene sequence was confirmed. The strain was grown in rich media until an optical density (OD) 0.2-0.5 was reached. Enzyme expression was then induced by addition of […] IPTG. Following the culture harvest, cells were removed by filtration through a […] filter. The culture filtrate containing the secreted enzyme was then collected and used for further applications.
# (§1) SCN eggs were obtained from SCN HG type 1.2.5.7, race 2. Eggs were rinsed 4 times with sterile water. Eggs were transferred to a 6-well plate and resuspended in 5 mL of 3 mM ZnSO4. The plate was sealed with parafilm, covered with aluminum foil to prevent light from entering the plate, and placed in a plate growth chamber at 25° C. and 80% relative humidity. After 6-7 days of incubation, an estimate of hatched SCN juveniles was obtained from the well to determine the overall number of juveniles per 10 μL. The concentration of the hatchery solution was adjusted until it consisted of 20-30 juveniles per 10 μL.
# Potato dextrose agar media containing chloramphenicol and chlortetracycline was prepared and added to sterile twenty-four-well cell culture plates (1 mL per well). The plates were divided according to the pre-determined N-value for each treatment (N=12-24). Each treatment being tested was added to the agar surface within each well at a rate of 40 μL per well. Without allowing the treatments to dry, 10 μL of the prepared nematode mixture was added to the agar surface within each well.
# To quantify the treatments' effects on nematode viability, the nematodes were examined under a dissecting microscope at 20× magnification. Initial (T0) values for the number of live juveniles, number of dead juveniles and total number of juveniles were recorded immediately after preparation of each well. The plates were then wrapped in parafilm around the open edge, encased in aluminum foil, and placed in secondary containment. The secondary containment was placed in a plant growth chamber at 25° C. and 80% relative humidity. At approximately 24 hours post addition of juveniles, the plates were evaluated, and the number of live juveniles, dead juveniles and total number of juveniles were recorded (T24).
# The difference in percent death at T0 vs T24 was calculated by subtracting the percent dead at TO [(#dead juveniles/total #juveniles)×100] from the percent dead at T24 [(#dead juveniles/#total juveniles originally present)×100]. […] If the ANOVA indicated a significant difference existed among treatments, Tukey's HSD post hoc test was used to perform a pairwise contrast between each set of treatments. Different letters denote statistically significant results at P<0.05.
# as §1, with “from” for “from SCN”, “rinsed four” for “rinsed 4”, “and 80-90%” for “and 80%”, “from each” for “from the”
# Potato dextrose agar media containing chloramphenicol and chlortetracycline was prepared and added to sterile twenty-four-well cell culture plates (1 mL per well). […]
# [3] = tested on: Btk resistant Diamondback moth; test: Diet-surface overlay (DSO) bioassay; type: in vivo; conditions: Table 47, Btk resistant
# Procedure, shortened: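 Enzyme treatments (0.1 mL) were applied over the surface of antibiotic-free artificial diet, with one first-instar larva per cell and 16 or 32 larvae per treatment. After 7 days at 27° C under a 16:8 light-dark cycle, larvae were scored as dead, larval stage, pupa or adult. Water served as the negative control and 1000 ppm Btk spores as the positive control.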
# SCN nematodes = test: Foliar spray on strawberry leaf segments: nematode death; type: in vivo, Heterodera glycines; conditions: Table 40, 0.6% spray solution on strawberry leaf segments
# Procedure: To determine whether a nematicidal enzyme can cause nematode death when sprayed as a foliar treatment, a trial was performed using chitinase 19F (SEQ ID NO: 182). The free enzyme was produced as described in Example 2. A SCN hatchery was set up as described in Example 2, except that no bleach sterilization step was performed. Six days later, the concentration of hatched nematodes was determined. Leaves from Quinault strawberry plants (Fragaria× ananassa) were cut into square sections and placed in the wells of a 24-well plate with the abaxial side up. Twenty-four wells were set up for each treatment. Spray solutions were created with water alone and water plus fermentation broth with chitinase 19F (SEQ ID NO: 182). For the base strain control and chitinase solutions, 0.094 mL of fermentation broth was added to 15 mL of water (0.6% solution) to model a field spray application of 8 fl oz. per acre. Treatments were added to a small spray bottle and each leaf segment was sprayed approximately 3 times. After the leaves had dried, approximately 100 nematodes were added to each leaf segment. […] The number of alive and dead nematodes were counted for each well, and the average percentage of dead nematodes were calculated for each treatment. […]
# [4] = Table 11, free enzyme seed treatment 2 fl oz/unit, soybean P18A98X, ILEVO 0.15 mg AI/seed, 3 weeks after inoculation, base control 71.4
molecule,measurement,setting,value
B1,% Comparison to Control,[1]; Table 11,27%
same,Average cysts per g of root tissue,[1]; [4],19.6 cysts per g of root tissue
same,Average cysts per g of root tissue,"[1]; Table 15, seed treated with whole cell broth, base control 59.8",56.3 cysts per g of root tissue
same,% Comparison to Control,"[1]; Table 15, whole cell broth",94%
same,% Comparison to Control,[1]; Table 25,80%
same,Average cysts per g of root tissue,"[1]; Table 25, soybean 3230E3, dried (PVP) formulation 0.04 units/seed, liquid 2 fl oz/unit, base control 289.9",233.2 cysts per g of root tissue
same,Difference in Percent Death of Nematodes for 0 to 24 Hours,"[2]; Table 28, fertilizer 3% v/v",3%
same,"difference in percent death over twenty-four hours, single treatment relative to the combination Esterase B + 10-34-0 fertilizer",[2]; text to Table 28,−7%
B2,Dead Larva,"[3]; individuals of n = 32 after 7 days, mU/mL diet: SEQ 182 3.7, SEQ 185 0.6, water 1",2
same,Early Pupa,"[3]; n = 32, doses as E97, water 0",4
same,Larva Stage I,"[3]; n = 32, doses as E97, water 0",2
same,Larva Stage II,"[3]; n = 32, doses as E97, water 0",1
same,Adult,"[3]; n = 32, doses as E97, water 7",1
same,Late Pupa,"[3]; n = 32, doses as E97, water 24",22
same,% Comparison to Control,[1]; Table 11,68%
same,Average cysts per g of root tissue,[1]; [4],48.8 cysts per g of root tissue
same,% Comparison to Control,[1]; Table 12,79%
same,Average cysts per g of root tissue,"[1]; Table 12, seed treatment 2 fl oz/unit, ILEVO 0.15 mg AI/seed, base control 376.9",296.9 cysts per g of root tissue
same,Difference in Percent Death of Nematodes for 0 to 24 Hours,"[2]; Table 32, water only 4%",24%
same,difference in percent death during 24 hours,[2]; text to Table 32,24%
same,Average percentage of dead nematodes at 0 hours,SCN nematodes; water only 4%,3%
same,Average percentage of dead nematodes at 24 hours,SCN nematodes; water only 5%,12%
